Measurements reported in US20110236969A1.
Where a chain is given by its changes, count along the chain named.

B1: AC10 H1L2 (H1 AC10 VH, L2 AC10 VL) (antibody, from a related filing, IgG1, V domains shown)
VH: QIQLVQSGPEVKKPGASVKVSCKASGYTFTDYYITWVRQAPGQGLEWMGWIYPGSGNTKYNEKFQGRVTITVDTSASTAYMELSSLRSEDTAVYFCANYGNYWFAYWGQGTLVTVSS
VL: DIVLTQSPSSLSASVGDRVTITCRASQSVDFDGDSYMNWYQQKPGQPPKVLIYAASNLESGIPARFSGSGSGTDFTLTISSLQPEDFATYYCQQSNEDPWTFGGGTKVEIK
B2: AC10 H3L1 (H3 AC10 VH, L1 AC10 VL) (antibody, from a related filing, IgG1, V domains shown)
VH: B1 VH with V68F, T69V, I70F, T71S, M81L, E82Q, L83I, R87K, S88A
VL: B1 VL with S9A, S10T, A13L, V15P, D17E, V19A, I21L, T22S
B3: AC10 H3L3 (H3 AC10 VH, L3 AC10 VL) (antibody, from a related filing, IgG1, V domains shown)
VH: B1 VH with V68F, T69V, I70F, T71S, M81L, E82Q, L83I, R87K, S88A
VL: DIVLTQSPDSLAVSLGERATINCKASQSVDFDGDSYMNWYQQKPGQPPKVLIYAASNLESGIPARFSGSGSGTDFTLTINSLEAEDAATYYCQQSNEDPWTFGGGTKVEIK
B4: AC10 H1L1 (H1 AC10 VH, L1 AC10 VL) (antibody, from a related filing, IgG1, V domains shown)
VH: B1 VH
VL: B1 VL with S9A, S10T, A13L, V15P, D17E, V19A, I21L, T22S
B5: AC10 H2L3 (H2 AC10 VH, L3 AC10 VL) (antibody, from a related filing, IgG1, V domains shown)
VH: QIQLVESGGGLVKPGGSLRLSCAASGYTFTDYYITWVRQAPGQGLEWMGWIYPGSGNTKYNEKFQGRVTMTVDTSTSTAYMELSSLRSEDTAVYFCANYGNYWFAYWGQGTLVTVSS
VL: B3 VL
B6: AC10 H2L1 (H2 AC10 VH, L1 AC10 VL) (antibody, from a related filing, IgG1, V domains shown)
VH: B5 VH
VL: B1 VL with S9A, S10T, A13L, V15P, D17E, V19A, I21L, T22S
B7: AC10 H1L3 (H1 AC10 VH, L3 AC10 VL) (antibody, from a related filing, IgG1, V domains shown)
VH: B1 VH
VL: B3 VL
B8: AC10 H2L2 (H2 AC10 VH, L2 AC10 VL) (antibody, from a related filing, IgG1, V domains shown)
VH: B5 VH
VL: B1 VL

Key:
[1] = target: GST-fused human V158 FcγRIIIa (extracellular region) (human) (UniProt P08637); experiment: SPR, GST-FcγRIIIa V158 on chip
[2] = target: GST-fused human V158 FcγRIIIa (extracellular region) (human) (UniProt P08637); experiment: AlphaScreen competition with biotin-WT AC10
[3] = target: CD30 fused to the Fc region of IgG1 (R&D Systems) (UniProt P28908); experiment: SPR, CD30-Fc on Protein A chip
[4] = target: T1, human CD30 (commercial), conjugated to digoxigenin (human) (UniProt P28908); experiment: AlphaScreen competition with biotin-WT AC10
T1 sequence (conjugated to digoxigenin (DIG), looked up): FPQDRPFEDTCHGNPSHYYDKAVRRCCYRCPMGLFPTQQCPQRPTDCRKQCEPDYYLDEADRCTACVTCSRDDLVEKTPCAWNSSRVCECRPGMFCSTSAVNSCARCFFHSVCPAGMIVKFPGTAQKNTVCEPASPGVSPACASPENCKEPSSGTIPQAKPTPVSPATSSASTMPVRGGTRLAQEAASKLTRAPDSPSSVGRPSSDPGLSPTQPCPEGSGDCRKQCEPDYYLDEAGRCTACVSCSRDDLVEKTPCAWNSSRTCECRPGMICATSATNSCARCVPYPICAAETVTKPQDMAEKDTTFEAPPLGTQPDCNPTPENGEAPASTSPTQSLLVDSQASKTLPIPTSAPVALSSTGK

Sequence of GST-fused human V158 FcγRIIIa (extracellular region) (human) (P08637 17-208 F176V): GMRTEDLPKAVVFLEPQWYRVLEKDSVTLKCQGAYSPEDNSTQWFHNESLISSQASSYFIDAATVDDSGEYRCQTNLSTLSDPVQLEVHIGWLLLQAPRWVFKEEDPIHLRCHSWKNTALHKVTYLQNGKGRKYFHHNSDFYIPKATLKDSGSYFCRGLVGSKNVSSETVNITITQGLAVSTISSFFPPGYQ

Row | Molecule | Kd [1] [nM] | IC50 [2] [nM] | Fold KD relative to WT [1] [fold] | Fold IC50 relative to WT [2] [fold] | Fold KD relative to WT [3] [fold] | Kd [3] [nM] | Fold IC50 relative to WT [4] [fold] | IC50 [4] [nM]
1 | WT AC10 antibody H0L0 (H0 AC10 VH, L0 AC10 VL) | 18.6 | 87.2 | – | – | – | – | – | –
2 | B1 | 16.6 | 340 | 1.12 | 0.26 | 0.45 | 7.55 | 0.07 | 45.3
3 | B2 | 17.4 | 209 | – | – | 1.39 | 2.44 | – | 6.09
4 | B3 | 6.13 | 83.5 | 3.03 | 1.04 | 1.45 | 2.33 | 1.59 | 1.99
5 | B4 | 11.2 | 221 | 1.66 | 0.39 | 0.6 | 5.63 | 0.11 | 27.7
6 | B5 | 3.52 | 183 | 5.28 | 0.48 | 0.5 | 6.75 | 0.12 | 27.2
7 | B6 | 14.9 | 751 | 1.25 | 0.12 | 0.36 | 9.49 | 0.06 | 55.1
8 | B7 | 11.2 | 178 | 1.66 | 0.49 | 0.67 | 5.09 | 0.18 | 17.4
9 | B8 | 4.01 | – | – | – | – | 5.95 | – | 49.2
